In paper PMC8168301:
“And” between values parts separate entries of the source, which are not always exact repeats. Equal entries are not always repeated. Where two headings read alike, the source gives them in different places.

Tests used:
N NTD-LKR;N CTD = N NTD-LKR;N CTD (SARS-CoV-2;SARS-CoV-2, UniProt P0DTC9;P0DTC9 44-247;248-369, |); test: fluorescence polarization
N NTD-LKR-CTD [1] = target: T1, N NTD-LKR-CTD (SARS-CoV-2, UniProt P0DTC9 44-369); test: fluorescence anisotropy
N WT [2] = target: T2, N WT (SARS-CoV-2, UniProt P0DTC9 1-419); test: fluorescence anisotropy
N NTD [3] = target: T3, N NTD (SARS-CoV-2, UniProt P0DTC9 44-176); test: fluorescence polarization
N NTD;N LKR-CTD = N NTD;N LKR-CTD (SARS-CoV-2;SARS-CoV-2, UniProt P0DTC9;P0DTC9 44-176;177-369, |); test: fluorescence polarization
N NTD-LKR-CTD [4] = target: T1, N NTD-LKR-CTD; test: fluorescence polarization
N NTD-LKR-CTD-Carm = N NTD-LKR-CTD-Carm (SARS-CoV-2, UniProt P0DTC9 44-419); test: fluorescence polarization
N NTD-LKR = N NTD-LKR (SARS-CoV-2, UniProt P0DTC9 44-247); test: fluorescence polarization
N WT [5] = target: T2, N WT; test: fluorescence polarization
N CTD [6] = target: T4, N CTD (SARS-CoV-2, UniProt P0DTC9 248-369); test: fluorescence polarization
N LKR-CTD = N LKR-CTD (SARS-CoV-2, UniProt P0DTC9 177-369); test: fluorescence polarization
N NTD [7] = target: T3, N NTD; test: fluorescence polarization; remark: listed apart in the source
N CTD [8] = target: T4, N CTD; test: fluorescence polarization; remark: listed apart in the source
N NTD-LKR-CTD [9] = target: T1, N NTD-LKR-CTD; test: fluorescence polarization; remark: listed apart in the source

Binder	Kd (N NTD-LKR;N CTD) [nM]	Kd (N NTD-LKR-CTD [1]) [nM]	Kd (N WT [2]) [nM]	Kd (N NTD [3]) [nM]	Kd (N NTD;N LKR-CTD) [nM]	Kd (N NTD-LKR-CTD [4]) [nM]	Kd (N NTD-LKR-CTD-Carm) [nM]	Kd (N NTD-LKR)	Kd (N WT [5]) [nM]	Kd (N CTD [6]) [nM]	Kd (N LKR-CTD) [nM]	Kd (N NTD [7]) [nM]	Kd (N CTD [8]) [nM]	Kd (N NTD-LKR-CTD [9]) [nM]
UUUCACCUCCCUUUCAGUUU (ssRNA) [20-nt ssRNA]	440 ± 40	6 ± 2	7 ± 1	16000 ± 12000	720 ± 90	6 ± 2	6 ± 2	500 ± 80 nM	7 ± 1	13000 ± 5000	350 ± 40	–	–	–
GGAAGAUUAAUAAUUUUCC (structured_RNA) [19-nt slRNA]	–	–	–	–	–	–	100 ± 10	2500 nM and 3000 nM	51 ± 4	–	–	124000 ± 84000	65000 ± 44000	220 ± 20
